Data taken from the RNAGym collection of RNA variant scans (doi:10.7554/elife.90254).

B1: LINE1-mini (parent)
chain: GGCAGAGCUCAACACAGCGUGGCAAAGUGGCUGUGGCUAGACUGCC

Variants of: B1
Experiment: self-cleavage, relative activity (ratio to wild type); higher = more cleavage; in vitro, sequencing; the parent is a self-cleaving ribozyme

Point of comparison: C13A C37U, self-cleavage 0.34. Against it:
- U20A A41U — higher, 0.35
- G1C U38G — lower, 0.01
- C18U G36A — lower, 0.15
- G36A A39C — lower, 0.27
- C23A A25G — higher, 0.49
- G36A A41G — lower, 0.2
- C3U A14U — lower, 0.19
- U9G A41C — lower, 0.04
- G2U G40C — lower, 0.03
- G2A C15A — lower, 0.31
- C3U A26G — the same, 0.34
- U34C C45G — lower, 0.11
- C8A G22A — lower, 0.18
- C10A U34A — lower, 0.05
- U9G U43C — lower, 0.04
- G36A C37U — lower, 0.31
- A11G C13G — lower, 0.02
- A6U G29U — higher, 0.66
- A14U U38A — the same, 0.34
- A25C G40C — lower, 0.06
- C3G G17C — lower, 0.15
- C10G G22A — lower, 0.13
- U9G C13G — lower, 0.08
- C3G A26U — higher, 0.56
- G1C G27U — lower, 0.12
- G35C A41U — lower, 0.13
- C31G U38C — lower, 0.07
- C10G G36A — lower, 0.01
- G40C G44A — lower, 0.12
- A39U C42U — lower, 0.23
- U9C A11G — lower, 0.02
- U9A C31G — lower, 0.07
- A12U A26U — lower, 0.28
- A41G — the same, 0.34
- A12G G21A — lower, 0.05
- G17U G22U — higher, 0.67
- U28A G36U — lower, 0.08
- G21C A41C — lower, 0.07
- G5A G22A — lower, 0.18
- G17U G30U — lower, 0.16
- A16G C31U — lower, 0.03
- C18A C46U — higher, 0.65
- A4C A12C — lower, 0.03
- A14C A26C — lower, 0.16
- A16U G36A — lower, 0.06
- G27U G35C — lower, 0.09
- G17U A26C — lower, 0.23
- A11U C13A — lower, 0.02
- A16C A25U — lower, 0.08
- C10G G17A — lower, 0.16
- U32G C45G — lower, 0.11
- C3G U38C — lower, 0.22
- C23A G29U — higher, 0.88
- G27C U43A — lower, 0.09
- A11U G33U — lower, 0.04
- G5U U34G — lower, 0.04
- U9C G27A — lower, 0.03
- A4G A6G — lower, 0.11
- G29C G44A — lower, 0.15
- G36A C46A — lower, 0.14
- A39C C42G — lower, 0.06
- G1C G19A — lower, 0.11
- A14G G40A — lower, 0.1
- A4C A11C — lower, 0.04
- U9A C18A — lower, 0.1
- A16G U20G — lower, 0.16
- A14G A24C — lower, 0.27
- C31U U43C — lower, 0.06
- C3G U38G — lower, 0.05
- G7A G27A — lower, 0.06
- C10G C13U — lower, 0.04
- G33A U43C — lower, 0.05
- G22A C42G — lower, 0.03
- G30C C31U — higher, 1.32
- U20G U32C — lower, 0.06
- A4C A24G — lower, 0.14
- C10A A26U — lower, 0.06
- C31A C37G — lower, 0.07
- U20G A41U — higher, 0.42
- U9C A39G — lower, 0.02
- U34C A39G — lower, 0.04
- A16G C45U — higher, 0.45
